The nanobody polyreactivity screen of Harvey et al. (2022)

Assay: yeast display, Sf9 membrane polyspecificity reagent, FACS + sequencing; frameworks hold sequencing errors
Method in brief: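 Using colony PCR, genes from sorted yeast display clones were amplified, then sequenced on MiSeq at 2 × 250 and filtered by CDR length. The clones had been stained with 10% biotinylated, detergent-solubilized Sf9 membrane reagent for 1 hour at 4 °C and sorted by FACS into low and high (top ~1%) gates on anti-HA and streptavidin fluorescence. Polyreactivity labels come from the gate of origin.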

Question: For “QVQLVESGGGLVQAGGSLRLSCAASGSTFVYYAMGWYRQAPGKERELVAAISSSGGTTYYAVSEKGRFTISRDYGKNTGYLLMNSLKPEDTAVYFCAAPYASRGYEYWGQGTQVTVSS”, which “polyreactivity (PSR sort gate)” value is on record?
Answer: Its value is “high polyreactivity”.

Question: For “QVQLVESGGGLVQAGGSLRLSCAASGSTFVYYAMGWYRQAPGKERELVAAISWSGTRTYYADSVKGRFTISRDNAKNTVYLQMNSLKPEDTAVYYCAARLRANQVKLYYWGQGTQVTVSS”, which “polyreactivity (PSR sort gate)” value is on record?
Answer: Its value is “high polyreactivity”.

Question: Which “polyreactivity (PSR sort gate)” value does the source give for “QVQLVESGGGLVQAGGSLRLSCAASGSTFVYYAMGWYRQAPGKERELVAAITASGGRTYYADSVKGRFTISRDNAKNTVYLQMNSLKPEDTAVYYCNTVRPHGMDYWGQGTQVTVSS” here?
Answer: The value was “high polyreactivity”.

Question: Which “polyreactivity (PSR sort gate)” value does the source give for “QVQLVESGGGLVQAGGSLRLSCAASGSTFVYYTMGCYRPAPGKETELVAAINGSGGSTYYADSVKRRFTISRDNAKNTVYLQMNSLKPEDTAVYYCDAVYWDGDDYWGQGTQVTVSS” here?
Answer: The value was “high polyreactivity”.

Question: For “QVQLVESGGGLVQAGGSLRLSCAASGSTFWANAMGWYRPAPGKERELVAGITWNAGSTYYADSVKGRFTISRDNAKNTVYLQMNSLKPEDTAVYYCAAYYHFQGWGPGYNSWGQGTQVTVSS”, which “polyreactivity (PSR sort gate)” value is on record?
Answer: The value was “low polyreactivity”.

Question: With “QVQLVESGGGLVQAGGSLRLSCAASGSTFWAYVMGWYRQAPGKERELVASISSGGSTNYADSVKGRFTISRDNAKNTVYLQMNSLKPEDTAVYYCAKRPYPYKYDYWGQGTQVTVSS” as the sequence, how does the “polyreactivity (PSR sort gate)” value read?
Answer: Its value is “high polyreactivity”.

Question: For “QVQLVESGGGLVQAGGSLRLSCAASGSTFWDYAMGWYRQAPGKERELVAAINSGDSTNYADSVKGRFTISRDNAKNTVYFQMNSLKPEDTAVYYCNVDWYDKGYGGYDYWGQGTQVTVSS”, which “polyreactivity (PSR sort gate)” value is on record?
Answer: Its value is “low polyreactivity”.

Question: With “QVQLVESGGGLVQAGGSLRLSCAASGSTFWFNDMGWYRQAPGKEREFVAAISSIGGSTYYADSVKGRFTISRDNAKNTVYLQMNSLKPEDTAVYNCAVEVVRVYRYDYWGQGTQVTVSS” as the sequence, how does the “polyreactivity (PSR sort gate)” value read?
Answer: Its value is “low polyreactivity”.

Question: With “QVQLVESGGGLVQAGGSLRLSCAASGSTFWFYALGWYRQAPGKERELVAAISSSGTTTYYADSVKGRFTISRDNAKNTVYLQINSLKPEDTAVSYCAAQYRGSYRTTYDYWGQCTQVTVSS” as the sequence, how does the “polyreactivity (PSR sort gate)” value read?
Answer: Its value is “low polyreactivity”.

Question: With “QVQLVESGGGLVQAGGSLRLSCAASGSTFWGNAMGWYRPAPGKERELVAAISNGGSTNYADSVKGRFTISRDNAKNTVNLQMNSLKPEDTAVYYCAADGHTSNGVSLHGYWGQGTQVTVSS” as the sequence, how does the “polyreactivity (PSR sort gate)” value read?
Answer: Its value is “low polyreactivity”.

Question: With “QVQLVESGGGLVQAGGSLRLSCAASGSTFWGNAMGWYRQAPGKERELVAAIDWSGGRTYYADSVKGRFTISRDNAKNTVYLQMNSLKPEDTAVYYCATRAWRGYVPYDYWGQGTQVTVSS” as the sequence, how does the “polyreactivity (PSR sort gate)” value read?
Answer: The value was “high polyreactivity”.

Question: Which “polyreactivity (PSR sort gate)” value does the source give for “QVQLVESGGGLVQAGGSLRLSCAASGSTFWGYAMGWYRQAPGKERELVAAINWIGGSDTFYADSVKGRFTISRDNAKNTVYLQMNSLKPEDTAVYYCAATYYNLPYSWGYDYWGQGTQVTVSS” here?
Answer: Its value is “low polyreactivity”.

Question: Which “polyreactivity (PSR sort gate)” value does the source give for “QVQLVESGGGLVQAGGSLRLSCAASGSTFWGYAMGWYRQAPGKERELVATINQSAGSTYYADSVKGRFTISRDYAKNTVYLQMNSLKPEDTAVYYCAAEARVQFSYDYWGQGTQVTVSS” here?
Answer: The value was “low polyreactivity”.

Question: Which “polyreactivity (PSR sort gate)” value does the source give for “QVQLVESGGGLVQAGGSLRLSCAASGSTFWINAMGWYRPAPGKEREFVAAIRWNGGSTNYADSVKGRFTHSRDNAKNTVYLPMNSLKPEDTAVYYCAADGYIGWRHIYEYWGQGTQVTVSS” here?
Answer: Its value is “low polyreactivity”.

Question: For “QVQLVESGGGLVQAGGSLRLSCAASGSTFWKYAMGWYRQAPGKEREFVAAITRSGGNTYYADSVKGRFTISRDNAKNTVYLQMNSLKPEDTALYYCAIVYKLITSYRGFGYWGQGTQVTVSS”, which “polyreactivity (PSR sort gate)” value is on record?
Answer: Its value is “high polyreactivity”.

Question: With “QVQLVESGGGLVQAGGSLRLSCAASGSTFWKYVMGWYRPAPGKERELVAAITSRGGSTYADSVKGRFTISRDNAKNTVYLLMNSLKPEDTAVYYCAATKFWYYGYDYWGQGTQVTVSS” as the sequence, how does the “polyreactivity (PSR sort gate)” value read?
Answer: Its value is “low polyreactivity”.

Question: Which “polyreactivity (PSR sort gate)” value does the source give for “QVQLVESGGGLVQAGGSLRLSCAASGSTFWLNAMGWYRQAPGKERELVAAITGLGGSTYYADSVKGRFTISRDTAKNTVYLQMNSLKPEDTAVYYCAAGAYRRNKSDYYYWGQGTEVTVSS” here?
Answer: Its value is “low polyreactivity”.

Question: Which “polyreactivity (PSR sort gate)” value does the source give for “QVQLVESGGGLVQAGGSLRLSCAASGSTFWLYAMGWYRPAPGKERELVASISSRGGSTYYADSVKGRFTISRDYAKNTVYLQMNSLKPEDTAVYYCAAKDIRYDDDYWGQGTQVTVSS” here?
Answer: Its value is “low polyreactivity”.

Question: For “QVQLVESGGGLVQAGGSLRLSCAASGSTFWNAMGWYRPGPGKERELVAAIRLSGGSTYYADSVKGRFTISRDNAKNTVYLQMNSLKPEDTAVYYCNADVTFGYWEYDYWGQGTQVTVSS”, which “polyreactivity (PSR sort gate)” value is on record?
Answer: Its value is “low polyreactivity”.

Question: Which “polyreactivity (PSR sort gate)” value does the source give for “QVQLVESGGGLVQAGGSLRLSCAASGSTFWPNAMGWYRQAPGKERELVAGITTSSGSTFYADSVKGRFTISRDNAKNTVYLQMNSLKPADTAVYYCNARVRRRRYKYDYWGQGTQVTVSS” here?
Answer: The value was “high polyreactivity”.

Question: Which “polyreactivity (PSR sort gate)” value does the source give for “QVQLVESGGGLVQAGGSLRLSCAASGSTFWPYAMGWFRQAPGTERELVAAITWSGGRTYYADSVKGRFTLSRDNAKNTVYLQMNSLKPEDTAVYYCAAYYRQGIAPNGFDYWGQGTQVTVSS” here?
Answer: The value was “high polyreactivity”.

Question: With “QVQLVESGGGLVQAGGSLRLSCAASGSTFWPYAMGWYRPAPGKERELVAAITNSGGSTYYADSVKGRFTISRDNAKYTVYLQMNSLKPEDTAVYYCAVRGVIYSYTPVNTYDYWGQGTQVTVSS” as the sequence, how does the “polyreactivity (PSR sort gate)” value read?
Answer: The value was “low polyreactivity”.

Question: Which “polyreactivity (PSR sort gate)” value does the source give for “QVQLVESGGGLVQAGGSLRLSCAASGSTFWQYAMGWYRQAPGKERELVAAISYSGGSTYYADSVKGRFTISRDNAKNTVYLQMNSLKPEDTAVYYCAKEYNVGFYLVFNRFDYWGQGTQVTVSS” here?
Answer: Its value is “low polyreactivity”.

Question: For “QVQLVESGGGLVQAGGSLRLSCAASGSTFWRYAMGWYRQAPGKERELVAGITWNGGSTYYADSVKGRFTISRDNAKNTVYLQMNSLKPEDTAVYYCAARRTWGYIYRLGYGMDYWGQGTQVTVSS”, which “polyreactivity (PSR sort gate)” value is on record?
Answer: The value was “high polyreactivity”.

Question: Which “polyreactivity (PSR sort gate)” value does the source give for “QVQLVESGGGLVQAGGSLRLSCAASGSTFWSNAMGWYRQAPGKERELVAAISISDGNTYYADSVKVRFTISRDNAKNTVYLQMNSLKPEDTAVYYCATVGSEDGDPGFDYWGQGTQVTVSS” here?
Answer: The value was “low polyreactivity”.

Question: For “QVQLVESGGGLVQAGGSLRLSCAASGSTFWSYAMGWYRQAPGKEREFVAAISSSDDSTYYADSVKGRFTISRDNAKNTVYLQMNSLKPEDTAVYYCATSWYIYPYDYWGQGTQVTVSS”, which “polyreactivity (PSR sort gate)” value is on record?
Answer: The value was “low polyreactivity”.

Question: For “QVQLVESGGGLVQAGGSLRLSCAASGSTFWSYAMGWYTQAPGKERELVAVITGSDGRTFYADSVKGRFTISRDNAKNTVYLQMNSLKPEDTAVYYCAADAVFRATRYDRSTSEDDYWGQGTQVTVSS”, which “polyreactivity (PSR sort gate)” value is on record?
Answer: Its value is “low polyreactivity”.

Question: Which “polyreactivity (PSR sort gate)” value does the source give for “QVQLVESGGGLVQAGGSLRLSCAASGSTFWVNTMGWYRQAPGKERELVAAISSNGGSTYYADSVKGRFTISRDNAKNTVYLQMNSLKPEDTAVYYCATRQSWSDYYLNVDYDYRGQGTQVTVSS” here?
Answer: The value was “low polyreactivity”.

Question: For “QVQLVESGGGLVQAGGSLRLSCAASGSTFWVYTMGWYRQAPGKERALVAAINYSDGSTYYADSVKGRFTISRENAKNTVYLQMNSLKPEDTAVYYCAAGSDPTGRRYEYWGQGTQVTVSS”, which “polyreactivity (PSR sort gate)” value is on record?
Answer: Its value is “low polyreactivity”.

Question: For “QVQLVESGGGLVQAGGSLRLSCAASGSTFWVYTMGWYRQAPGKERELVAAINYSDGSTYYADSVKGRFTISRDNAKNTVYLQMNRLKPEDTAVYYCAAGSDPTGRRYDYWGQGTQVTVSS”, which “polyreactivity (PSR sort gate)” value is on record?
Answer: The value was “low polyreactivity”.
